Laboratory results published in patent US20240270821A1, “GIP/GLP1/GCG TRI-RECEPTOR AGONISTS AND USES THEREOF” (priority 2023, published 2024).
Substitutions are numbered along the chain they refer to. Starred links: 1 amine or outer side, 2 acyl side, 3 side chain; linkers in the order of their positions; H or OH if unused. Non-standard residues stand in square brackets, D forms with d. Groups on a side chain read outwards from the residue. No end group written: not given here. *: point of attachment. C20 diacid = O=C(O)CCCCCCCCCCCCCCCCCCC(=O)*; C18 diacid = O=C(O)CCCCCCCCCCCCCCCCC(=O)*; αMePhe(2-F) = C[C@](N)(Cc1ccccc1F)C(=O)O; γGlu = O=C(O)[C@H](CCC(=O)[*:2])N[*:1]; NMeY = CN[C@@H](Cc1ccc(O)cc1)C(=O)O; αMe4Pal = C[C@](N)(Cc1ccncc1)C(=O)O; αMeF = C[C@](N)(Cc1ccccc1)C(=O)O; 4Pal = N[C@@H](Cc1ccncc1)C(=O)O; αMeL = CC(C)C[C@](C)(N)C(=O)O; Orn = NCCC[C@H](N)C(=O)O; AEEA = NCCOCCOCC(=O)O; Aib = CC(C)(N)C(=O)O

T1: hGIPR (Homo sapiens, UniProt P48546)
T1 sequence (P48546 22-466): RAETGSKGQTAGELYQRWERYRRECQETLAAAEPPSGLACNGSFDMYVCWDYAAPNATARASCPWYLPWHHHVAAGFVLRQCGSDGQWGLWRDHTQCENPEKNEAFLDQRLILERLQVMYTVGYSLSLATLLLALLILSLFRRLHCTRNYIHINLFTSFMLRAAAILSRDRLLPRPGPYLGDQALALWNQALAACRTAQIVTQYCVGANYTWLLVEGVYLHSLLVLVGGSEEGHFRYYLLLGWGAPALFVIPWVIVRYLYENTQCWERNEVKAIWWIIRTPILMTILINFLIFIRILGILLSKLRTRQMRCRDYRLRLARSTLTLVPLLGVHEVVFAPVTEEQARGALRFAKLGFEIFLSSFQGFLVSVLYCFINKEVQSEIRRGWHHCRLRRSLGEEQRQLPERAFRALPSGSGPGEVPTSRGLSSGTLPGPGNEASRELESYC

T2: human GIP receptor (human) (UniProt P48546)
T2 sequence (looked up): T1 sequence (P48546 22-466)

B1: Example 290 (peptide)
chain: HXQGTXTSDYSILLDKKAAXAFIEYLIETGPSSGEPPPSEG
modifications: synthetic construct; SITE 2: note = 2-Aminoisobutyric Acid; SITE 6: note = alpha-methyl-2-fluoro-L-phenylalanine; SITE 17: note = Lysine is chemically modified through conjugation of the epsilon-amino group of the Lysine side chain with (2-[2-(2-Amino-ethoxy)-ethoxy]-acetyl)-(gamma-Glu)-CO-(CH2) 18-
B2: Example 294 (peptide)
chain: B1 chain with H1Y, X6F, L13X, I27L, T29G
modifications: synthetic construct; SITE 2: note = 2-Aminoisobutyric Acid; SITE 13: note = alpha-methyl-leucine; SITE 17: note = Lysine is chemically modified through conjugation of the epsilon-amino group of the Lysine side chain with (2-[2-(2-Amino-ethoxy)-ethoxy]-acetyl)2-(gamma-Glu)-CO-(CH2 )18-CO2H; SITE 20:
B3: Example 298 (peptide)
chain: B1 chain with T29A
modifications: synthetic construct; SITE 2: note = 2-Aminoisobutyric Acid; SITE 6: note = alpha-methyl-2-fluoro-L-phenylalanine; SITE 17: note = Lysine is chemically modified through conjugation of the epsilon-amino group of the Lysine side chain with (2-[2-(2-Amino-ethoxy)-ethoxy]-acetyl)-(gamma-Glu)-CO-(CH2) 18-

Key:
[1] = target: T1, hGIPR; experiment: Functional cAMP activity in the presence of 1% HSA; type: cell-based; details: read-out: cAMP Rel EC50, hGIPR
[2] = target: T3, hGLP-1R (Homo sapiens, UniProt P43220); experiment: Functional cAMP activity in the presence of 1% HSA; type: cell-based; details: read-out: cAMP Rel EC50, hGLP-1R
T3 sequence (P43220 24-463): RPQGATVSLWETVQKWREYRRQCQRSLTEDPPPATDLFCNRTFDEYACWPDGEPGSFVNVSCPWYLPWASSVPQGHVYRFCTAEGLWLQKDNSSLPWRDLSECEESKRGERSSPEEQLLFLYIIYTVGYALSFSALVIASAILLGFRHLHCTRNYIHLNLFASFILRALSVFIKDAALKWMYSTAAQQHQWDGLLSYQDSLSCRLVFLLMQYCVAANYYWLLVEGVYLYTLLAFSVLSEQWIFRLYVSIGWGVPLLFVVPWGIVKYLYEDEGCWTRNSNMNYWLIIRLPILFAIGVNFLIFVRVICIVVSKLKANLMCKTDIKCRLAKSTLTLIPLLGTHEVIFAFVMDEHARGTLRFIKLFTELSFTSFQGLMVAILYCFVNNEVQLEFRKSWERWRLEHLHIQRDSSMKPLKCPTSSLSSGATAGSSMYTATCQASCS

[3] = target: human GcgR (Homo sapiens, UniProt P47871); experiment: Functional cAMP activity in the presence of 1% HSA; type: cell-based; details: read-out: cAMP Rel EC50, hGcgR
human GcgR, sequence (P47871 26-477): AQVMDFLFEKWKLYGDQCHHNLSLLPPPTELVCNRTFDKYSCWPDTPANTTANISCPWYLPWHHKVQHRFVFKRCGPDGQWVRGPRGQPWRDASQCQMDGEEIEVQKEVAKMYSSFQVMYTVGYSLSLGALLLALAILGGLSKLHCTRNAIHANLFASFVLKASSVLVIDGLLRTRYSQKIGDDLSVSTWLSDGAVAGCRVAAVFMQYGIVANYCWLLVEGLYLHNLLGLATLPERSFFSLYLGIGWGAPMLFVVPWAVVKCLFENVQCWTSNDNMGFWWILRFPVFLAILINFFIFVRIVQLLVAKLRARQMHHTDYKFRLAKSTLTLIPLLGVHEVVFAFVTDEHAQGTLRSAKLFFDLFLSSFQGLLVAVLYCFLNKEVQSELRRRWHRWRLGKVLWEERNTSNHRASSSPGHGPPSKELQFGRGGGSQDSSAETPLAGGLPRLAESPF

[4] = target: T1, hGIPR; experiment: Functional cAMP activation in the presence of 0.1% casein (no HSA); type: cell-based; details: in the presence of 0.1% casein (no HSA); geometric mean; read-out: Relative cAMP EC50, hGIPR;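 as to Relative cAMP EC50, hGIPR: intracellular cAMP rise after 30 min at 37 °C read by HTRF against a standard curve, scaled between buffer alone (0%) and top control ligand concentration (100%), four-parameter fit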;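 as to Relative cAMP EC50, hGLP-1R: intracellular cAMP rise after 30 min at 37 °C read by HTRF, normalized between buffer only (0%) and maximal control ligand (100%), four-parameter variable-slope fit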;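 as to Relative cAMP EC50, hGcgR: intracellular cAMP rise after 30 min at 37 °C, read by HTRF against a cAMP standard curve, scaled from buffer only (0%) to maximal control ligand response (100%)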
[5] = target: T3, hGLP-1R; experiment: as above; type: cell-based; details: in the presence of 0.1% casein (no HSA); geometric mean; read-out: Relative cAMP EC50, hGLP-1R
[6] = target: hGcgR (Homo sapiens, UniProt P47871); experiment: as above; type: cell-based; details: in the presence of 0.1% casein (no HSA); geometric mean; read-out: Relative cAMP EC50, hGcgR;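 also: intracellular cAMP rise after 30 min at 37 °C, read by HTRF against a cAMP standard curve, scaled from buffer only (0%) to maximal control ligand response (100%)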
hGcgR, sequence (P47871 26-477): as above

[7] = target: human GLP1-R (Homo sapiens, UniProt P43220); experiment: GLP1-R internalization assay in HEK293 cells; type: cell-based; details: for EC50: HEK293 cells expressing SNAP-GLP-1R, read-out: GLP1R Internalization EC50; for Internalization % TOP: normalized to maximum concentration of GLP-1 (100%)
human GLP1-R, sequence (P43220 24-463): as the sequence (P43220 24-463) above

[8] = tested on: Intestinal organoid from Göttingen minipig jejunum tissue, 2D monolayer; experiment: Cell based in vitro permeability (Papp) assay; type: in vitro ADME
Outline: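 Papp calculated from LC/MS peptide levels in apical and basal compartments. Basal sampling at 20 min with C10 present, across monolayers grown from dissociated minipig jejunal organoids in transwells.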

[9] = target: Pro-Link-tagged Human GLP-1R (human) (UniProt P43220); experiment: cell-based or functional assay
Pro-Link-tagged Human GLP-1R (human), sequence (P43220 24-463): as above

[10] = target: T3, hGLP-1R; experiment: cell-based or functional assay
[11] = target: T2, human GIP receptor (human); experiment: cell-based or functional assay
[12] = target: human glucagon receptor (human) (UniProt P47871); experiment: cell-based or functional assay
human glucagon receptor (human), sequence (P47871 26-477): as the sequence (P47871 26-477) above

Molecule | EC50 [1] [nM] | EC50 [2] [nM] | EC50 [3] [nM] | EC50 [4] [nM] | EC50 [5] [nM] | EC50 [6] [nM] | EC50 [7] [nM] | Internalization % TOP [7] [%] | Relative Papp (Compared to internal standard) [8] | % Stimulation Max [9] [%] | hGLP1R β-arrestin Rel EC50 [9] [nM] | Relative cAMP EC50 [10] [nM] | cAMP Rel EC50 (1% HSA) [10] [nM] | Relative cAMP EC50 [11] [nM] | cAMP Rel EC50 (1% HSA) [11] [nM] | Relative cAMP EC50 [12] [nM] | cAMP Rel EC50 (1% HSA) [12] [nM] | cAMP Rel EC50 (in the presence of 1% HSA) [10] [nM] | cAMP Rel EC50 (in the presence of 1% HSA) [11] [nM] | cAMP Rel EC50 (in the presence of 1% HSA) [12] [nM]
H-Y[Aib]QGTFTSD[4Pal]S[Orn][αMeL]LDKK([AEEA-γGlu-C18 diacid])AQ[αMe4Pal]AFIEYLIE[Aib]GESSGAPPPSGS-NH2 [Example 223] | 37.2 | 627 | 373 | 0.215 | 2.83 | 1.57 | 45.8 | 59.3 | 0.29 | – | – | – | – | – | – | – | – | – | – | –
Tirzepatide (peptide) | – | – | – | – | – | – | – | – | – | 10.5 | – | – | – | – | – | – | – | – | – | –
Y[Aib]QGTFTSDFS[Orn][αMeL]LDKK([AEEA-AEEA-γGlu-C18 diacid])AQ[Aib]AFIEYLLE[dA]GPSSGEPPPSGS-NH2 [Example 155] | 18.9 | 503 | 1310 | 0.177 | 2.98 | 5.68 | 85.1 | 54.5 | 0.07 | – | – | – | – | – | – | – | – | – | – | –
Y[Aib]QGTFTSDFS[Orn][αMeL]LDKK([AEEA-AEEA-γGlu-C18 diacid])AQ[Aib]AFIEYLLE[dA]GPSSGHPPPSGH-NH2 [Example 255] | 21.9 | 272 | 883 | 0.107 | 1.9 | 5.48 | 47.1 | 51.8 | 0.23 | – | – | – | – | – | – | – | – | – | – | –
[NMeY][Aib]QGT[αMeF]TSDYSILLDKIAAKAFVQWLIAGGPSSGEPPPSEG-NH2 (not fully specified (residue 20)) [Example 300] | – | – | – | – | – | – | – | – | – | 40.3 | 15.7 | 1.05 | 98 | 0.0975 | 12.9 | 6.54 | 976 | – | – | –
[NMeY][Aib]QGT[αMeF]TSDYSSLLDKIAAKAFIEYLLEGGPSSGEPPPSEG-NH2 (not fully specified (residue 20)) [Example 297] | – | – | – | – | – | – | – | – | – | 33.5 | 60.2 | 2.96 | 1130 | 0.626 | 325 | 3.26 | 2320 | – | – | –
B1 | – | – | – | – | – | – | – | – | – | 83.5 | 3.94 | 0.34 | – | 0.43 | – | 2.68 | – | 90 | 53.4 | 878
B2 | – | – | – | – | – | – | – | – | – | 35.3 | 27.7 | 2.16 | – | 0.318 | – | 1.07 | – | 554 | 54.1 | 518
B3 | – | – | – | – | – | – | – | – | – | 86.4 | 3.29 | 0.277 | 70.9 | 0.138 | 41.3 | 1.04 | 1570 | – | – | –
Y[Aib]QGT[αMePhe(2-F)]TSDYSILLDKIAQK([AEEA-γGlu-C20 diacid])AFIEYLLEGGPSSGEPPPSEG-NH2 [Example 293] | – | – | – | – | – | – | – | – | – | 54.6 | 11.9 | 0.994 | – | 0.0587 | – | 4.01 | – | 295 | 9.63 | 1740
